In general, EC50 (read off the curve) refers to the concentration at which the effect is half-maximal. A low value points to higher potency in that assay. By Kd is commonly meant a measure of binding affinity in units of concentration. A word on the koff: it is the rate constant with which the complex falls apart. A low value points to a long-lived complex. By kon is commonly meant the rate constant with which the complex forms. A lower kon goes with slow association.

This is an account of results in patent US20260250421A1 (BIOCYTOGEN PHARMACEUTICALS BEIJING, published 2026).

Assay [1] deals with T1, TROP2 on NCI-H1975 and NUGC-4 tumor cells (UniProt P09758 27-323, limits assumed).
T1 construct: whole, on cells; species of the lines is not worded there; also called TROP2 on cells
T1 sequence (looked up): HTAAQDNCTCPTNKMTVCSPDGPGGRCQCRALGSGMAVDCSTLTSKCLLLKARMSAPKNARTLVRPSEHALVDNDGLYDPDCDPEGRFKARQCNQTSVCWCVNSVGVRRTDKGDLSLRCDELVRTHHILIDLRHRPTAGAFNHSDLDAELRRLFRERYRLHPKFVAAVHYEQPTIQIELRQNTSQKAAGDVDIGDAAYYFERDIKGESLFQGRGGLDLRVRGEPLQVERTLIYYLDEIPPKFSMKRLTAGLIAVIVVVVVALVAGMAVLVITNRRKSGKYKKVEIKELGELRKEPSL
Description: flow cytometry on NUGC-4 cells (only TROP2 expression), anti-hIgG-Fc Alexa Fluor 647 secondary antibody, MFI [B]. The procedure: This experiment was performed to test the binding activities of the anti-PTK7/TROP2 bispecific antibodies to different tumor cell lines. NCI-H1975 cells or NUGC-4 cells were transferred to a 96-well plate at a density of 5×10⁴ cells/well respectively. The sample antibody was added to the 96-well plate, and incubated at 4° C. for 30 min.
For orientation: Flow cytometry measures light scatter and fluorescence of single cells or particles in a stream.

Assay [2] has as its target T2, His-tagged dog PTK7 protein (dog, UniProt Q13308 31-703 (human entry)).
T2 construct: also called dPTK7-His
T2 chain: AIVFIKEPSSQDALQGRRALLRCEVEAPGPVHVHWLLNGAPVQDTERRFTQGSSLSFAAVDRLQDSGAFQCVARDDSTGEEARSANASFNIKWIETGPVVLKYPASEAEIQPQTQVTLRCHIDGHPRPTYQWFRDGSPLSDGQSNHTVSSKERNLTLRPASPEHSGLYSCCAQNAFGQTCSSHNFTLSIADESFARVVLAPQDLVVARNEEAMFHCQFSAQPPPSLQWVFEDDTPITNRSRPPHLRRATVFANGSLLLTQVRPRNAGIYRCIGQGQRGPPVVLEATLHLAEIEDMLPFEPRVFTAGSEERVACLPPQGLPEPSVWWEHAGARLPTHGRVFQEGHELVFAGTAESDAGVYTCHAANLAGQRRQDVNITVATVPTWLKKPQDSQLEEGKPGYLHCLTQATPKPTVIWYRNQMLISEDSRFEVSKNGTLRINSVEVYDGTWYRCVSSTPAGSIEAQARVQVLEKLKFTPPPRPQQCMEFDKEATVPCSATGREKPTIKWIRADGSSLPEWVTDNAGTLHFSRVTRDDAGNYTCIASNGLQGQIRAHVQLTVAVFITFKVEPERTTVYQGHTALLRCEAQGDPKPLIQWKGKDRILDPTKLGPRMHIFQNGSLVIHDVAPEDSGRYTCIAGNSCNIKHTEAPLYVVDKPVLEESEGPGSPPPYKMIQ
Briefly: SPR Biacore 8K, Ab on Protein A chip. The procedure:
The affinity of the anti-PTK7/TROP2 bispecific antibodies to His-tagged human TROP2 protein (hTROP2-His, ACRO Biosystems Inc., Cat #: TR2-H5223), His-tagged […] monkey TROP2 protein (cTROP2-His, ACRO Biosystems Inc., Cat #: Cat: TR2-R52H3), His-tagged dog TROP2 protein (dTROP2-His, ACRO Biosystems Inc., Cat #: TR2-C52H4), hPTK7-His, cPTK7-His and dPTK7-His were measured by surface plasmon resonance (SPR) using Biacore™ (Biacore, INC, Piscataway N.J.) 8K biosensor equipped with pre-immobilized Protein A sensor chips.

The target of assay [3] is T3, human PTK7 on human cancer cell lines (human, UniProt Q13308 31-1070).
T3 construct: Endogenous PTK7 of human tumour cell lines; also called PTK7 on A-431, NCI-H520, NCI-N87, SK-OV-3, BT-20, HCC1954, NCI-H226, NCI-H358, HCT116, PC-3, NCI-H292, NCI-H1975 cells
T3 sequence: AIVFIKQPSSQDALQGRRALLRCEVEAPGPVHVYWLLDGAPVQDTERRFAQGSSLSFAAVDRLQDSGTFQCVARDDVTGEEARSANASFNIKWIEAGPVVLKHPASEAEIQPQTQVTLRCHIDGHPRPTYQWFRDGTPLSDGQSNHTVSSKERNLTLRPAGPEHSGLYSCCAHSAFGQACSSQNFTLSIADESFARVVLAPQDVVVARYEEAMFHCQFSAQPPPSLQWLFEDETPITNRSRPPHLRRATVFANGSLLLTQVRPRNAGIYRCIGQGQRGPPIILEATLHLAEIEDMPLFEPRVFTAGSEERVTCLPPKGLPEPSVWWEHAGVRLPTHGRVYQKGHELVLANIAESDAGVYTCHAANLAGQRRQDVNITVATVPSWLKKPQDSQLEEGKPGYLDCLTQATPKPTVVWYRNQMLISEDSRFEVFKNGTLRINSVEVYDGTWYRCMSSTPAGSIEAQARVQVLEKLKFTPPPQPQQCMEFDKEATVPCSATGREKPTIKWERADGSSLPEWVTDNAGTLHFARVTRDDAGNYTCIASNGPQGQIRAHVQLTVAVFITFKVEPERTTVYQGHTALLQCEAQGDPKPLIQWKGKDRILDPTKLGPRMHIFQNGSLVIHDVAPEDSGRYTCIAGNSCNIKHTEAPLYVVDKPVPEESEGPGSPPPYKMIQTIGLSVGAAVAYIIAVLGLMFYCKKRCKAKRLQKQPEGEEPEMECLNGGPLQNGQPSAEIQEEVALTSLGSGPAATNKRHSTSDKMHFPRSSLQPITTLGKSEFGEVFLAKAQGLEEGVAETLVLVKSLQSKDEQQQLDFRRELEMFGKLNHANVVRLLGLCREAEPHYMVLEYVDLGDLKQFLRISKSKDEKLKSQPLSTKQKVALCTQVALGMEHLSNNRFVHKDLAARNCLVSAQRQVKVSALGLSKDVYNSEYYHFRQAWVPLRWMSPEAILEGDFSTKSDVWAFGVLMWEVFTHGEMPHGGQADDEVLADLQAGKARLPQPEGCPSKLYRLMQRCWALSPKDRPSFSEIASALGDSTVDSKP
Briefly: flow cytometry, NCI-H292 cells, Ab 5 ug/mL. The procedure:
The binding activity of anti-PTK7 antibodies to cancer cell lines was verified by flow cytometry. […] Purified anti-PTK7 antibody with a concentration of 5 μg/mL was added to each well and was incubated at 4° C. for 30 minutes. […] The cells were collected, and the mean fluorescence intensity (MFI) was determined. Human IgG1 was used as ISO control.

B1: 3C4-18E9 (bispecific antibody, human IgG1, V domains shown)
VH 1: QVQLEQSRAEVKKPGESLRISCKGSGYSFTSYWISWVRQMPGKGLEWMGRIDPSDSYTNYNPSFQGHVTISADKSISTAYLQWSSLKASDTAMYYCARRDGSYFDFDYWGQGTLVTVSS
VH 2: QLQLQQSGPGLLKPSETLSLTCTVSGGSISSSYYFWGWIRQPPGKGLEWIGAIYYIGNTHYNPSLKSRVTISIDTSKNQFSLNLNSVTAADTAIYYCARYEDTWNWFDPWGQGTLVTVSS
VL: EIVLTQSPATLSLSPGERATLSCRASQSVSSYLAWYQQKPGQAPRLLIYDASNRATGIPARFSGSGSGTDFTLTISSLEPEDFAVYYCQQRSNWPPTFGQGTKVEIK
notes: which arm carries the knob is stated only for 3C4-6F7; also called anti-PTK7/TROP2 bispecific antibody 3C4-18E9
B1: the “EC50 (read off the curve)” value in assay [1] was around 0.6 µg/mL. In addition, in assay [2], the affinity, expressed as Kd, was 38.9 nM; the off-rate (koff) was found to be 0.00449 s⁻¹; the kon was found to be 115000 M⁻¹ s⁻¹.

B2: 3C4 (antibody, V domains shown)
VH: QVQLEQSRAEVKKPGESLRISCKGSGYSFTSYWISWVRQMPGKGLEWMGRIDPSDSYTNYNPSFQGHVTISADKSISTAYLQWSSLKASDTAMYYCARRDGSYFDFDYWGQGTLVTVSS
VL: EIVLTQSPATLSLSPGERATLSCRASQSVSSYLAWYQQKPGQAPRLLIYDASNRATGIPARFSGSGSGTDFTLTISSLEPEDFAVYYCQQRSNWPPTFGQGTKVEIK
notes: also called anti-PTK7 antibody 3C4
In turn, B2 registered an MFI in assay [3] of 92400.

B3: 3E6 (antibody, V domains shown)
VH: QVQLVESGAEVKKPGESLRISCRGSGYSFTSYWISWVRQMPGKGLEWMGRIDPSDSYTKYSPSFQGHVTISADKSISTAYLQWSSLKASDTAMYYCARRDGDYFDFDYWGQGTLVTVSS
VL: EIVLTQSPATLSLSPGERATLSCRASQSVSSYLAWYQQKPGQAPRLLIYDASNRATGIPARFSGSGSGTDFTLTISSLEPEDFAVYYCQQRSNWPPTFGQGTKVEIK
notes: also called anti-PTK7 antibody 3E6
Regarding B3, in assay [3], the MFI came to 141000.

B4: 1A7 (antibody, human IgG1, V domains shown)
VH: QVQLVESGGGVVQPGRSLRLSCAASGFTFSNYGMHWVRQAPGKGLEWVAVIYYDGSNKFYADSVKGRFTISRDNSKNTLYLQMSSLRAEDTAVYYCARDVAPPGSRAEYFHHWGQGTLVTVSS
VL: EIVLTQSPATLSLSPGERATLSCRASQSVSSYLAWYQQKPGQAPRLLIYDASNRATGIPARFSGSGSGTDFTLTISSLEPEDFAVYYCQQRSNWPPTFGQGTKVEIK
notes: also called anti-PTK7 antibody 1A7
In turn, B4 came in with an MFI in assay [3] of 43500.

B5: 2A5 (antibody, V domains shown)
VH: QVQLVQSGGGVVQPGRSLRLSCAASGFTFSNYGMHWVRQAPGKGLEWVAVIWYDGRNKYYADSVKGRFTISRDNSKNTLYLQMNSLRAEDTAVYYCARDVAPAGSRAEYFQNWGQGTLVTVSS
VL: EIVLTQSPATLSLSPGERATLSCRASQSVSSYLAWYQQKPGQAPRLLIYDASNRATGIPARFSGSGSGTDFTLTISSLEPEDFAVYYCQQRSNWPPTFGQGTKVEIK
notes: also called anti-PTK7 antibody 2A5
Regarding B5, the MFI in assay [3] stood at 92000.

B6: 2D11 (antibody, V domains shown)
VH: QVQLVESGGGVVQPGRSLRLSCAASGFTFSSYGMHWVRQAPGKGLEWVAVIFYDGSNKYYADSVKGRFTISRDNSKNTLYLQMNSLRAEDTSVYYCARDVAAPGSRAEYFQNWGQGTLVTVSS
VL: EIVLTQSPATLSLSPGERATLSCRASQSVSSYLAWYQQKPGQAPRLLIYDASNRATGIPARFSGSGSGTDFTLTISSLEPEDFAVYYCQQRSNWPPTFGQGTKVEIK
notes: also called anti-PTK7 antibody 2D11
Consider B6, for which the MFI in assay [3] came out at 134000.

B7: 2F5 (antibody, V domains shown)
VH: QVQLVESGGGVVQPGRSLRLSCVASGFTFSNYGMHWVRQAPGKGLEWVAIIYYDGSNKYYADSVKGRFTISRDNSKNTLYLQMNSLRAEDTAVYYCARDVAAAGSRAEYLHHWGQGTLVTVSS
VL: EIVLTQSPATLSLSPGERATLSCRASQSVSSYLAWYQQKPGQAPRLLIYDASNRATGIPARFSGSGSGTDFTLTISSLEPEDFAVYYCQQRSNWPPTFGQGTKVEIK
notes: also called anti-PTK7 antibody 2F5
The molecule B7 gave an MFI in assay [3] of 44500.

B8: 1A11 (antibody, V domains shown)
VH: QVQLVQSGPGLVKPSETLSLTCTVSGGSINSYYWNWIRQPPGKGLEWIGYIYYSGSTNYNPSLKSRVTISVDTSKNQFSLKLSSVTAADTAVYYCARDPHDYIRGHFDLWGRGTLFTVSS
VL: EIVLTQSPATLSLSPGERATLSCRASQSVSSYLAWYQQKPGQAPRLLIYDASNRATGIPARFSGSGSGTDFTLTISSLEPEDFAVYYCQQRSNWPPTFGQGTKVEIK
notes: also called anti-PTK7 antibody 1A11
With B8, the MFI in assay [3] worked out at 125000.

B9: 1F2 (antibody, V domains shown)
VH: QVQLVQSGGGLVQPGGSLRLSCAASGFTFSRYEMNWVRQAPGKGLEWVSYINSIGSAINYADSVKGRFTISRDNAKNSLYLQMRSLRAEDTAVYYCVREDNWNPGYWGQGTLVTVSS
VL: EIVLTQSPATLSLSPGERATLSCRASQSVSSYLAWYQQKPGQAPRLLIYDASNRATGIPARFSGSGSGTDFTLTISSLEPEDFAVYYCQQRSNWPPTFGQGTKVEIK
notes: also called anti-PTK7 antibody 1F2
In assay [3], B9 registered an MFI of 69300.
